# Test results reported in patent US20180155451A1 (published 2018).
# T1: FcγRIIb extracellular domain with C-terminal His tag (human, UniProt P31994 43-217)
# T1 construct: extracellular domain; Soluble receptor expressed in FreeStyle293 cells and used as analyte in Biacore; also called FcgRIIb; 2b; not shown: His tag at the C terminus
# T1 sequence (looked up): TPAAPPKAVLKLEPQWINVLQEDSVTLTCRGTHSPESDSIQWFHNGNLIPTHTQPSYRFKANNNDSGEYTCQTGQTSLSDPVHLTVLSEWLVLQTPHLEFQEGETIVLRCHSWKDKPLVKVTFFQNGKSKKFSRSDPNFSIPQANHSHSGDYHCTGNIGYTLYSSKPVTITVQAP
# T2: FcγRIIa H (human, UniProt P12318 34-217)
# T2 construct: extracellular domain; Soluble His-tagged extracellular domain expressed in FreeStyle293 cells; also called FcγRIIa type H; FcgRIIa H; not shown: His tag attached to the C terminus
# T2 sequence (looked up): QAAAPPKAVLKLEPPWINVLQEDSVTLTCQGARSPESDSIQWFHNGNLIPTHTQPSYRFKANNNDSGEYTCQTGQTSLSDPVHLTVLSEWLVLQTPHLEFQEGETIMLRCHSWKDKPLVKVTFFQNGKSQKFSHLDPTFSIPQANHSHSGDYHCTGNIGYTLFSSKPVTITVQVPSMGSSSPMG
# T3: FcγRIIb (human, UniProt P31994 43-217)
# T3 construct: extracellular domain; Soluble His-tagged extracellular domain expressed in FreeStyle293 cells; also called FcgRIIb; 2b; not shown: His tag attached to the C terminus
# T3 sequence (looked up): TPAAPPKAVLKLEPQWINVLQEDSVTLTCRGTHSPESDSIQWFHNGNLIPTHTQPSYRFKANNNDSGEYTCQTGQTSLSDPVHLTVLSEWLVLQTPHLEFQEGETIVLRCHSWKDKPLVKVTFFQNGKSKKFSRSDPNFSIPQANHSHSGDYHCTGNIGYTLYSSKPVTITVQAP
# B1: heterodimerized antibody GpH7-A5/GpH7-B3 variant Y296_01G/GpL16-k0 (antibody, human IgG1, kappa)
# heavy 1: not shown
# heavy 2: not shown
# light: DIVMTQSPLSLPVTPGEPASISCQASESLVHSNRNTYLHWYLQKPGQSPQLLIYKVSNRFSGVPDRFSGSGSGTDFTLKISRVEAEDVGVYYCSQNTHVPPTFGQGTKVEIERTVAAPSVFIFPPSDEQLKSGTASVVCLLNNFYPREAKVQWKVDNALQSGNSQESVTEQDSKDSTYSLSSTLTLSKADYEKHKVYACEVTHQGLSSPVTKSFNRGEC
# notes: Substitution in only one H chain (GpH7-B3 side); also called He Ab
# B2: GpH7-A5/GpH7-B3 variant K326_19Q/GpL16-k0 (antibody, human IgG1, kappa)
# heavy 1: not shown
# heavy 2: not shown
# light: DIVMTQSPLSLPVTPGEPASISCQASESLVHSNRNTYLHWYLQKPGQSPQLLIYKVSNRFSGVPDRFSGSGSGTDFTLKISRVEAEDVGVYYCSQNTHVPPTFGQGTKVEIERTVAAPSVFIFPPSDEQLKSGTASVVCLLNNFYPREAKVQWKVDNALQSGNSQESVTEQDSKDSTYSLSSTLTLSKADYEKHKVYACEVTHQGLSSPVTKSFNRGEC
# notes: Heterodimerized anti-glypican-3 IgG1; mutation in the GpH7-B3 H chain only; also called He Ab
# B3: heterodimerized antibody GpH7-A5/GpH7-B3 variant Q295_20W/GpL16-k0 (antibody, human IgG1, kappa)
# heavy 1: not shown
# heavy 2: not shown
# light: DIVMTQSPLSLPVTPGEPASISCQASESLVHSNRNTYLHWYLQKPGQSPQLLIYKVSNRFSGVPDRFSGSGSGTDFTLKISRVEAEDVGVYYCSQNTHVPPTFGQGTKVEIERTVAAPSVFIFPPSDEQLKSGTASVVCLLNNFYPREAKVQWKVDNALQSGNSQESVTEQDSKDSTYSLSSTLTLSKADYEKHKVYACEVTHQGLSSPVTKSFNRGEC
# notes: as for B1
# B4: GpH7-A5/GpH7-B3 variant N325_03V/GpL16-k0 (antibody, human IgG1, kappa)
# heavy 1: not shown
# heavy 2: not shown
# light: DIVMTQSPLSLPVTPGEPASISCQASESLVHSNRNTYLHWYLQKPGQSPQLLIYKVSNRFSGVPDRFSGSGSGTDFTLKISRVEAEDVGVYYCSQNTHVPPTFGQGTKVEIERTVAAPSVFIFPPSDEQLKSGTASVVCLLNNFYPREAKVQWKVDNALQSGNSQESVTEQDSKDSTYSLSSTLTLSKADYEKHKVYACEVTHQGLSSPVTKSFNRGEC
# notes: as for B2
# B5: heterodimerized antibody GpH7-A5/GpH7-B3 variant Q295_16H/GpL16-k0 (antibody, human IgG1, kappa)
# heavy 1: not shown
# heavy 2: not shown
# light: DIVMTQSPLSLPVTPGEPASISCQASESLVHSNRNTYLHWYLQKPGQSPQLLIYKVSNRFSGVPDRFSGSGSGTDFTLKISRVEAEDVGVYYCSQNTHVPPTFGQGTKVEIERTVAAPSVFIFPPSDEQLKSGTASVVCLLNNFYPREAKVQWKVDNALQSGNSQESVTEQDSKDSTYSLSSTLTLSKADYEKHKVYACEVTHQGLSSPVTKSFNRGEC
# notes: as for B1
# B6: GpH7-A5/GpH7-B3 variant N325_08L/GpL16-k0 (antibody, human IgG1, kappa)
# heavy 1: not shown
# heavy 2: not shown
# light: DIVMTQSPLSLPVTPGEPASISCQASESLVHSNRNTYLHWYLQKPGQSPQLLIYKVSNRFSGVPDRFSGSGSGTDFTLKISRVEAEDVGVYYCSQNTHVPPTFGQGTKVEIERTVAAPSVFIFPPSDEQLKSGTASVVCLLNNFYPREAKVQWKVDNALQSGNSQESVTEQDSKDSTYSLSSTLTLSKADYEKHKVYACEVTHQGLSSPVTKSFNRGEC
# notes: as for B2
# B7: GpH7-A5/GpH7-B3 variant N325_02A/GpL16-k0 (antibody, human IgG1, kappa)
# heavy 1: not shown
# heavy 2: not shown
# light: DIVMTQSPLSLPVTPGEPASISCQASESLVHSNRNTYLHWYLQKPGQSPQLLIYKVSNRFSGVPDRFSGSGSGTDFTLKISRVEAEDVGVYYCSQNTHVPPTFGQGTKVEIERTVAAPSVFIFPPSDEQLKSGTASVVCLLNNFYPREAKVQWKVDNALQSGNSQESVTEQDSKDSTYSLSSTLTLSKADYEKHKVYACEVTHQGLSSPVTKSFNRGEC
# notes: as for B2
# How the values were obtained:
# [1] = target: T1, FcγRIIb extracellular domain with …; assay: SPR Biacore, relative binding amount
# [2] = target: T4, FcγRIa extracellular domain with C-terminal His tag (human, UniProt P12314 16-292); assay: SPR Biacore, relative binding amount
# T4 construct: extracellular domain; Soluble receptor expressed in FreeStyle293 cells and used as analyte in Biacore; also called FcgRI; 1a; not shown: His tag at the C terminus
# [3] = target: T4, FcγRIa extracellular domain with …; assay: SPR Biacore; relative binding to FcγRIa divided by that to FcγRIIb
# [4] = target: T2, FcγRIIa H; assay: SPR (Biacore); He/Con_2aH divided by He/Con_2b (FcγRIIb) of the same antibody
# Procedure: (§1) The heterodimerized antibodies He Abs in which one of the H chains was introduced with an alteration were assayed for their binding activities to each activating FcγR and inhibitory FcγR according to the method described in Example 4. […] The activating FcγRs in FIGS. 26, 27, 28, and 29 are FcγRIa, FcγRIIa (R), FcγRIIa (H), and FcγRIIIa, respectively.
# (§2) Analysis of interaction between objective antibody and the FcγR was carried out using Biacore T100 (GE Healthcare). HBS-EP+ (GE Healthcare) was used as the running buffer, and the measurement temperature was set to 25° C. Chips produced by immobilizing the antigen peptide by the amine coupling method to a Series S Sencor Chip CM5 (GE Healthcare), or alternatively, chips produced by allowing preliminarily biotinylated antigen peptides to interact with and immobilize onto a Series S Sensor Chip SA (certified) (GE Healthcare) were used. Antibodies of interest were captured onto an antigen peptide-immobilized chip, and allowed to interact to each FcγR diluted with running buffer. To regenerate and repeatedly use the chip, the antibodies captured on the chip were washed off by reacting 10 mM glycine-HCl, pH 1.5.
# [5] = target: T3, FcγRIIb; assay: SPR (Biacore), captured antibody, FcγR analyte; relative to GpH7-A5/GpH7-B3/GpL16-k0 = 100
# Procedure: as §1, §2
# [6] = target: T2, FcγRIIa H; assay: as above
# Procedure: as §1, §2
# T4 sequence (P12314 16-292): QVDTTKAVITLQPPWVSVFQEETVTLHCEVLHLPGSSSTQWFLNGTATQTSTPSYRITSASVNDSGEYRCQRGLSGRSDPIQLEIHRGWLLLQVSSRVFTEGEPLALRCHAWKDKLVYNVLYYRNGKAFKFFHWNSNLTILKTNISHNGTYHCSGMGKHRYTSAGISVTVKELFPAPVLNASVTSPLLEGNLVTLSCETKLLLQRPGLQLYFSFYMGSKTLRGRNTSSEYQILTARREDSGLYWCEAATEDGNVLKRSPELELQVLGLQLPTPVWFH
He/Con_2b [1],He/Con_1a [2],Ia/IIb He_1a/2b [3],He_2aH/2b [4],He/Con_2b [5],He/Con_2aH [6],Binder
79.3 % of GpH7-A5/GpH7-B3/GpL16-k0 (=100),103 % of GpH7-A5/GpH7-B3/GpL16-k0 (=100),1.29 ratio of He/Con_1a to He/Con_2b,,,,B1
,,,0.73 ratio,139 relative (control = 100),101 relative (control = 100),B2
44.4 % of GpH7-A5/GpH7-B3/GpL16-k0 (=100),93.7 % of GpH7-A5/GpH7-B3/GpL16-k0 (=100),2.11 ratio of He/Con_1a to He/Con_2b,,,,B3
,,,0.41 ratio,111 relative (control = 100),45.2 relative (control = 100),B4
62.7 % of GpH7-A5/GpH7-B3/GpL16-k0 (=100),102 % of GpH7-A5/GpH7-B3/GpL16-k0 (=100),1.64 ratio of He/Con_1a to He/Con_2b,,,,B5
,,,0.26 ratio,197 relative (control = 100),52 relative (control = 100),B6
,,,0.74 ratio,64.4 relative (control = 100),47.6 relative (control = 100),B7
